pKd: −log10 of the molar value. Where “and” joins values, the source holds several entries; their conditions need not be identical. Equal values may be shown once. Read-outs that look alike come from different tables or passages of the source.
How the values were obtained:
A488-irisin-His [1] = biological target: A488-irisin-His (UniProt Q8NAU1); experiment: fluorescence polarisation
[2] = biological target: unclasped and untagged recombinant human integrin αVβ5 ectodomain (human) (UniProt P06756); experiment: fluorescence polarisation
[3] = biological target: clasped and tagged recombinant human integrin αVβ5 ectodomain (human) (UniProt P06756); experiment: BLI
[4] = biological target: reconstituted αVβ5/Hsp90α complex (human) (UniProt P06756); experiment: fluorescence polarisation
A488-irisin-His [5] = biological target: A488-irisin-His (UniProt Q8NAU1); experiment: MST
A488-irisin-bac = A488-irisin-bac (UniProt Q8NAU1); experiment: fluorescence polarisation
A488-FN10 (human) = experiment: fluorescence polarisation
A488-irisin-His [6] = biological target: A488-irisin-His (UniProt Q8NAU1); experiment: fluorescence polarisation; remark: listed apart in the source

## αVβ5 ectodomain mutant R218E (β5) (from UniProt P06756 32-991; P18084 24-717) (receptor)
A488-irisin-His [1]
  reduction of affinity for irisin compared to WT: > 90%

## irisin-bac (non-glycosylated irisin produced in bacteria) (from UniProt Q8NAU1 1-260) (ligand)
[2]
  pKd: 6.53 and 6.52

## irisin-His (wild-type, glycosylated recombinant irisin from mammalian cells) (from UniProt Q8NAU1 1-191) (ligand)
[3]
  pKd: 6.67
[2]
  pKd: 7.46
[4]
  pKd: 7.28

## unlabeled and untagged irisin (glycosylated, from mammalian cells) (from UniProt Q8NAU1 1-191) (ligand)
[4]
  pKd: 7.30

## unclasped and untagged recombinant human integrin αVβ5 ectodomain (from UniProt P06756 32-991; P18084 24-717) (receptor)
A488-irisin-His [5]
  stoichiometry N: 1
A488-irisin-bac
  pKd: 6.59
A488-irisin-His [1]
  pKd: 7.55
A488-FN10 (human)
  pKd: 6.84

## αVβ5 ectodomain mutant E304R (β5) (from UniProt P06756 32-991; P18084 24-717) (receptor)
A488-irisin-His [1]
  reduction of affinity for irisin compared to WT: 80%

## reconstituted αVβ5/Hsp90α complex (from UniProt P06756 32-991; P18084 24-717; P07900 1-732)
A488-irisin-His [1]
  pKd: 7.43
A488-irisin-His [6]
  pKd: 7.51

## FN10 (human fibronectin 10th FNIII domain, untagged) (domain or fragment)
[2]
  pKd: 6.62

From publication PMC10984146
